Reference: the supplement of paper PMC9112550, “Optimization of the antimicrobial peptide Bac7 by deep mutational scanning” (BMC Biology, 2022)

Test system: Escherichia coli TOP10
Assay: shrunken log2 fold change of peptide-encoding DNA abundance (4.5 h post-induction vs induction); higher = less antimicrobial activity (less host growth inhibition)
Details: time post-induction: 4.5 h; library: site-saturation at positions 5, 18, 19, 20
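Note: peptides expressed intracellularly from a pBAD plasmid library in pooled LB shake-flask culture, induced with 0.3% L-arabinose, DNA abundance read by NGS, three biological replicates, DESeq2 with apeglm shrinkage.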

Sequence | shrunken log2 fold change
RRIRHRPPRLPRPRPRPCLRPRP | 0.0119
RRIRSRPPRLPRPRPRPETDPRP | 0.392
RRIRFRPPRLPRPRPRPSWTPRP | -0.561
RRIRVRPPRLPRPRPRPKCQPRP | 0.106
RRIRCRPPRLPRPRPRPIYLPRP | -0.457
RRIRTRPPRLPRPRPRPITAPRP | -0.0416
RRIRSRPPRLPRPRPRPTCQPRP | 0.0682
RRIRSRPPRLPRPRPRPNTGPRP | -0.336
RRIRVRPPRLPRPRPRPNRCPRP | -0.364
RRIRPRPPRLPRPRPRPAREPRP | 0.68
RRIRDRPPRLPRPRPRPIRWPRP | 0.13
RRIRWRPPRLPRPRPRPPGDPRP | 0.88
RRIRMRPPRLPRPRPRPFVGPRP | 0.0187
RRIRCRPPRLPRPRPRPYWFPRP | -0.74
RRIRTRPPRLPRPRPRPTWNPRP | -0.0206
RRIRERPPRLPRPRPRPDLDPRP | -0.0232
RRIRQRPPRLPRPRPRPFYNPRP | -0.739
RRIRWRPPRLPRPRPRPIKWPRP | -0.18
RRIRLRPPRLPRPRPRPLPCPRP | 0.142
RRIRNRPPRLPRPRPRPAAGPRP | 0.698
RRIRSRPPRLPRPRPRPLRDPRP | 0.439
RRIRIRPPRLPRPRPRPLLKPRP | -0.428
RRIRGRPPRLPRPRPRPDCTPRP | 0.615
RRIRKRPPRLPRPRPRPPFFPRP | 0.476
RRIRHRPPRLPRPRPRPHPEPRP | 0.0129

Sequence | shrunken log2 fold change
RRIRIRPPRLPRPRPRPHYMPRP | -0.943
RRIRARPPRLPRPRPRPWDGPRP | 0.72
RRIRQRPPRLPRPRPRPACYPRP | -0.18
RRIRQRPPRLPRPRPRPVPTPRP | 0.0766
RRIRLRPPRLPRPRPRPERPPRP | 0.157
RRIRCRPPRLPRPRPRPGEAPRP | 0.449
RRIRARPPRLPRPRPRPDFVPRP | 0.205
RRIRYRPPRLPRPRPRPHFIPRP | -0.214
RRIRMRPPRLPRPRPRPFNQPRP | -0.0903
RRIRKRPPRLPRPRPRPHWWPRP | 0.119
RRIRGRPPRLPRPRPRPHYAPRP | -0.0664
RRIRWRPPRLPRPRPRPYCWPRP | -0.127
RRIRCRPPRLPRPRPRPNHEPRP | -0.15
RRIRWRPPRLPRPRPRPVQPPRP | 0.0708
RRIRWRPPRLPRPRPRPFARPRP | 0.188
RRIRHRPPRLPRPRPRPPTPPRP | 0.518
RRIRFRPPRLPRPRPRPVWEPRP | 0.00583
RRIRTRPPRLPRPRPRPIIFPRP | -0.0206
RRIRNRPPRLPRPRPRPTYLPRP | -0.533
RRIRDRPPRLPRPRPRPWFHPRP | -0.00884
RRIRRRPPRLPRPRPRPKWPPRP | 0.141
RRIRKRPPRLPRPRPRPPAMPRP | 0.635
RRIRIRPPRLPRPRPRPNKWPRP | -0.0869
RRIRVRPPRLPRPRPRPWGDPRP | 0.148
RRIRMRPPRLPRPRPRPLWHPRP | 0.336

Sequence | shrunken log2 fold change
RRIRWRPPRLPRPRPRPCEEPRP | 0.0489
RRIRSRPPRLPRPRPRPWLYPRP | -0.652
RRIRTRPPRLPRPRPRPCYDPRP | -0.127
RRIRARPPRLPRPRPRPTADPRP | 0.83
RRIRPRPPRLPRPRPRPRFGPRP | 0.348
RRIRHRPPRLPRPRPRPPVEPRP | 0.126
RRIRQRPPRLPRPRPRPNDMPRP | -0.296
RRIRERPPRLPRPRPRPCRYPRP | -0.00318
RRIRQRPPRLPRPRPRPNEDPRP | 0.031
RRIRHRPPRLPRPRPRPEPPPRP | 0.545
RRIRERPPRLPRPRPRPVLTPRP | -0.126
RRIRSRPPRLPRPRPRPFCSPRP | -0.212
RRIRFRPPRLPRPRPRPDPYPRP | -0.437
RRIRARPPRLPRPRPRPFDSPRP | -0.0745
RRIRDRPPRLPRPRPRPPVFPRP | 1.59
RRIRPRPPRLPRPRPRPHHHPRP | -0.532
RRIRQRPPRLPRPRPRPILHPRP | -1.25
RRIRYRPPRLPRPRPRPYHEPRP | -0.194
RRIRIRPPRLPRPRPRPVIHPRP | -0.248
RRIRIRPPRLPRPRPRPKFHPRP | -0.375
RRIRKRPPRLPRPRPRPSALPRP | 0.271
RRIRPRPPRLPRPRPRPSVHPRP | -0.289
RRIRRRPPRLPRPRPRPNPMPRP | 0.359
RRIRIRPPRLPRPRPRPLAWPRP | 0.0118
RRIRLRPPRLPRPRPRPMDHPRP | -0.00264

Sequence | shrunken log2 fold change
RRIRVRPPRLPRPRPRPTHTPRP | 0.0927
RRIRYRPPRLPRPRPRPAWAPRP | 0.253
RRIRQRPPRLPRPRPRPYRSPRP | -0.0119
RRIRIRPPRLPRPRPRPPSGPRP | 0.537
RRIRQRPPRLPRPRPRPKAHPRP | 0.0165
RRIRERPPRLPRPRPRPAIWPRP | 0.129
RRIRQRPPRLPRPRPRPYEHPRP | 0.00367
RRIRMRPPRLPRPRPRPYYEPRP | -0.28
RRIRLRPPRLPRPRPRPMNRPRP | -0.0112
RRIRRRPPRLPRPRPRPQDEPRP | -0.0204
RRIRDRPPRLPRPRPRPMKVPRP | -0.0768
RRIRCRPPRLPRPRPRPNKGPRP | -0.302
RRIRARPPRLPRPRPRPTTFPRP | 0.177
RRIRQRPPRLPRPRPRPFTAPRP | -0.183
RRIRSRPPRLPRPRPRPPHRPRP | 0.182
RRIRYRPPRLPRPRPRPWYYPRP | -0.00865
RRIRCRPPRLPRPRPRPNMEPRP | -0.237
RRIRVRPPRLPRPRPRPGHWPRP | 0.164
RRIRFRPPRLPRPRPRPNCWPRP | -0.358
RRIRERPPRLPRPRPRPNYQPRP | -0.812
RRIRARPPRLPRPRPRPQGSPRP | 0.4
RRIRGRPPRLPRPRPRPRIEPRP | 0.249
RRIRLRPPRLPRPRPRPYKRPRP | -0.0165
RRIRCRPPRLPRPRPRPNSWPRP | 0.0889
RRIRRRPPRLPRPRPRPDRWPRP | 0.957

Sequence | shrunken log2 fold change
RRIRERPPRLPRPRPRPVQGPRP | 0.166
RRIRIRPPRLPRPRPRPHLWPRP | -0.256
RRIRGRPPRLPRPRPRPFFVPRP | 0.246
RRIRHRPPRLPRPRPRPFIRPRP | 0.00659
RRIRQRPPRLPRPRPRPTADPRP | 0.392
RRIRLRPPRLPRPRPRPHPLPRP | -0.152
RRIRARPPRLPRPRPRPRIFPRP | 0.213
RRIRRRPPRLPRPRPRPPSKPRP | 0.172
RRIRWRPPRLPRPRPRPSNGPRP | -0.19
RRIRYRPPRLPRPRPRPSDLPRP | -1.92
RRIRTRPPRLPRPRPRPQAMPRP | 0.00573
RRIRFRPPRLPRPRPRPVPVPRP | 0.143
RRIRRRPPRLPRPRPRPCFDPRP | 0.1
RRIRARPPRLPRPRPRPHQIPRP | 0.354
RRIRIRPPRLPRPRPRPHSNPRP | -0.502
RRIRCRPPRLPRPRPRPYVSPRP | -0.207
RRIRWRPPRLPRPRPRPRPRPRP | 0.974
RRIRKRPPRLPRPRPRPLNKPRP | -0.0644
RRIRHRPPRLPRPRPRPNHTPRP | -1.04
RRIRRRPPRLPRPRPRPIVRPRP | 0.117
RRIRARPPRLPRPRPRPGNGPRP | 0.275
RRIRQRPPRLPRPRPRPFPHPRP | 0.259
RRIRERPPRLPRPRPRPHEVPRP | -0.0812
RRIRSRPPRLPRPRPRPLQVPRP | -0.157
RRIRWRPPRLPRPRPRPEPFPRP | -0.0317
